Source: patent publication US20240043507A1 (RQ BIOTECHNOLOGY, published 2024)
Where a chain is given by its changes, count along the chain named.

B1: antibody 253H165L (antibody, V domains shown)
VH: not shown
VL: DIVMTQSPGTLSLSPGERATLSCRASQSVRSSYLAWYQQKPGQAPRLLIYGASRRGTGIPDRFSGSGSGTDFTLTISRLEPEDFAVYYCQQYGSSPWTFGQGTKVEIK
B2: antibody 165 (antibody, V domains shown)
VH: QVQLVQSGPEVKKPGTSVKVSCKASGFTFTSSAVQWVRQARGQRLEWIGWIVVGSGNTNYAQKFQESVTITRDMSTSTAYMELSSLRSEDTAVYYCAAPHCIGGSCHDAFDIWGQGTMVTVSS
VL: B1 VL
notes: also called mAb 165
B3: antibody 88 (antibody, V domains shown)
VH: QLQLQESGPGLVKPSQTLSLTCTVSGGSISSGSYNWTWIRQPAGKGLEWIGRIYNSGSTNYNPSLKSRVTISVDTSKNQLSLKVRSVTAADTAVYYCARHCSGGTCYPKYYYGMDVWGQGTTVTVSS
VL: QSALTQPPSVSEAPRQRVTISCSGSSSNIGNNAVNWYQQFPGKAPKLLIYYDDLLPSGVSDRFSGSKSGTSASLAISGVQSEDEADYYCAAWDDSLNVVVFGGGTKLTVL
notes: also called mAb 88
B4: antibody 40 (antibody, V domains shown)
VH: QVQLVESGGGLVQPGGSLRLSCAVSGFTVSRNYMSWVRQAPGKGLEWVSLIYSGGSTFYADSVKGRFTISRDNSKNTLYLQMNSLRAEDTAVYYCARDLFHRSGYHDYWGQGTLVTVSS
VL: not shown
notes: also called mAb 40
B5: antibody 58 (antibody, V domains shown)
VH: QVQLVESGGGLVQPGRSLRLSCAASGFTFDDYAMHWVRQPPGKGLEWVSGVSWNSGTIGYADSVKGRFIISRDNAKNSLYLQMNSLKAEDTALYYCAREVGGTFGVLISREGGLDYWGQGTLVTVSS
VL: SYELTQPPSVSVAPGQTARITCGGNTIGSKSVHWYQQRPGQAPVLVVYDDSDRPSGIPERFSGSNSGNTATLTISRVEAGDEADYYCQVWDSSSDRVVFGGGTKLTVL
notes: also called mAb 58
B6: antibody 158 (antibody, V domains shown)
VH: EVQLLESGGDLIQPGGSLRLSCAASGVTVSSNYMSWVRQAPGKGLEWVSIIYPGGSTFYADSVKGRFTISRDNSKNTLYLQMHSLRAEDTAVYYCARDLGSGDMDVWGKGTTVTVSS
VL: DIVMTQSPSFLSASVGDRVTITCRASQGISSYLAWYQQKPGKAPKLLIQAASTLQSGVPSRFSGSGSGTEFTLTISSLQPEDFATYYCQQLNSYRYTFGQGTKVEIK
notes: also called mAb 158
B7: Fab 58 (Fab, V domains shown)
VH: B5 VH
VL: B5 VL
B8: antibody 281 (antibody, V domains shown)
VH: QVQLVESGGGLVQPGGSLRLSCAASGFPFSIYWMSWVRQAPGKGLEWVANIKQDGSEKYYVDSVKGRFTISRDNAKNSLYLHMNSLRGEDTAVYYCASRYYDFRPEAWFDYWGQGTLVTVSS
VL: not shown
B9: antibody 222 (antibody, V domains shown)
VH: EVQLVESGGGLIQPGGSLRLSCAASGLTVSSNYMSWVRQAPGKGLEWVSVIYSGGSTFYADSVKGRFTISRDNSKNTLYLQMNSLGAEDTAVYYCARGEGSPGNWFDPWGQGTLVTVSS
VL: DVVMTQSPGTLSLSPGERATLSCRASQSVPSSYLAWYQQKPGQAPRLLIYGASTRATGIPDRFSGSGSGTDFTLTISRLEPEDFAVYYCQHYDTSPRFGGGTKVDIK
B10: antibody 175 (antibody, V domains shown)
VH: EVQLVESGGGLIQPGGSLRLSCAASGLTVSRNYMSWVRQAPGKGLEWVSLIYSGGSTYYADSVKGRFTISRDNSKNTLYLQMNSLRAEDTAVYYCARDLRGEVWGQGTMVTVSS
VL: not shown
B11: antibody 253H165L (antibody, V domains shown)
VH: not shown
VL: B1 VL
B12: antibody 318 (antibody, V domains shown)
VH: QVQLVQSGPEVKKPGTSVKVSCKASGFTLTSSAMQWVRQARGQRLEWIGWIVVGSGNTNYAQKFQERVTITRDMSTSTAYMELSSLRSEDTAVYYCAAGRGYNSDFDYWGQGTLVTVSS
VL: AIRMTQSPGTLSLSPGERATLSCRASQSVSSSYLAWYQQRPGQAPRLLIYGTSSRATGIPDRFSGSGSGTDFTLTISRLEPEDFAVYYCQQYGYSVYTFGQGTKVDIK
B13: antibody 269 (antibody, V domains shown)
VH: QVQLVESGGGLIQPGGSLRLSCAASGLTVNRNYMSWIRQAPGKGLEWVSVIYSGGSTFYADSVKGRFTISRDNSKNTLSLQMNSLRAEDTAIYYCARDFYEGSFDIWGQGTMVTVSS
VL: AIQLTQSPSFLSASIGDRVTITCRASQGISSYLAWYQQKPGKAPKLLIYAASTLQSGVPSRFSGSGSGTEFTLTISSLQPEDFASYYCQQLNSYPAPVFGPGTKVDIK
B14: antibody 88 (antibody, V domains shown)
VH: B3 VH
VL: B3 VL
B15: antibody 40 (antibody, V domains shown)
VH: B4 VH
VL: not shown
B16: antibody 316 (antibody, V domains shown)
VH: not shown
VL: QAVLTQPPSASGSPGQSVTISCTGTSSDVGGYNYVSWYQQHPGKAPKLMIYEVSKRPSGVPDRFSGSKSGNTASLTVSGLQAEDEADYYCSSYAGSNHWVFGGGTKLTVL
B17: antibody 398 (antibody, V domains shown)
VH: QVQLVESGGGLVQPGGSLRLSCAASGFTVSSNYMTWVRQAPGKGLEWVSVIYSGGSTYYADSVKGRFTISRDNSKNTLYLQMNSLRADDTAVYYCARDSTADYDFWSGYYVGAFHIWGQGTMVTVSS
VL: B16 VL with A2T, P8A, A10V, V18I, S54T, H98N
B18: antibody 58 (antibody, V domains shown)
VH: B5 VH
VL: B5 VL
B19: antibody 158 (antibody, V domains shown)
VH: B6 VH
VL: B6 VL

Target: T1, SARS-CoV-2 spike receptor binding domain, native (SARS-CoV-2, UniProt P0DTC2 330-532)
T1 construct: range 330-532
Experiment: BLI, RBD on AR2G biosensor, mAb as analyte

Row | Binder | Kd [nM]
1 | B1 | 3.38
2 | B2 | 2.15
3 | B3 | 2.9
4 | B4 | 1.33
5 | B5 | 1.46
6 | B6 | 1.89

Target: T2, SARS-CoV-2 receptor binding domain (RBD), native (SARS-CoV-2, UniProt P0DTC2 330-532)
T2 construct: range 330-532
Experiment: BLI, Fab and RBD

Row | Binder | Kd [nM]
7 | B7 | 3.4

Target: SARS-CoV-2 spike receptor binding domain (native RBD) (SARS-CoV-2, UniProt P0DTC2 330-532)
Experiment: not given

Row | Binder | Kd [nM]
8 | B8 | 3.2
9 | B9 | 0.29
10 | B10 | 0.97
11 | B11 | 0.73
12 | B12 | 2.23
13 | B13 | 1.59
14 | B14 | 0.64
15 | B15 | 0.55
16 | B16 | 1.5
17 | B17 | 1.02
18 | B18 | 0.3
19 | B19 | 0.53
